These results are taken from a protein production outcome set (Wang et al. 2014).

The data set is described as follows: label from the status in PepcDB records.
On to “MPRRFRQANARLTILSGGIPYLTNTMTLPDRFQQADAVPDDLQQLEARLAEAEDILLRDSPQAEATAREVLAGATAAGCQSLALRSRTVLGRSLAHQKRNEQATELLESVVAESRSAKMPELLVHAWLGLGLAHLNERRMARGLQAYLEALKICESLNAPELSLRVLTNLASAYAKLEQYDTAQPYLTEAHDTARQLGQPFDLMITSLNLACVCQLSGGTGAALTLIEEALRHAKTVASPRYLKSVLFHFSQLLLDLDRLSEALTYCEQGLNTDSGFGTATPQCELQVTHGEILYGLGRPAEARPALEAGLRAAQDLRLNDAEGRARRCYAQLLEDQDDYQGALAQVRALAQLEHDLREQLAAVNLQLEAERLRSETLAEKRRLKEEGRTQQRLAAQLRHDALTGLPNRLALHEALGQQVAADSAPFALLCLDLDHFKTVNHTLGQPAGDALLLYIGERVQAAVGEQGQTFRRGGNEFVVLLPAVRAAPDALTIAQTLLDTINEPLLLDGQALVVTASIGLALFPEDGRDSLTLQKNADLALHAAKQEGGQAQRYRNALSQAANERLELTQALRSGIGNGELVLHYQPIVEVRSGKTVAVEALVRWQHPRLGLLSPDRFIGLAEDNGLIVPLGRWVLNTALRQLAAWREHWPELRVSVNMAPRQLQQPGSCQEIRDALRAYALPPDALELEITEQTICDEEALEPFLPLIREGLRLAIDDFGTGYSSLSRLYRLPAQILKLDRSLIQDLSADNATDGPLVSALIAFAQRFGMQVTAEGIETAEQLHLLRQ”, for which the protein production entry is listed as “failed”. For “MSQRKYFGTDGVRGEVGGPVINAAFALRLGYAAGRVLAREHREHASGRGRNRPQVVIGKDTRISGYMLESALEAGLSAAGIDVLLAGPVPTPAVAYLTRTLRLAAGIVISASHNPYQDNGIKFFSAHGMKLPDDIEAAIEQALDEPLGCVGSEELGRARRMADAQGRYIEFCKSTFPHDLDLNGLKLVVDAAHGAAYNVAPHVFRELGAEVHAIGVSPDGFNINKGVGALHPESLAEEVRARGADLGIALDGDADRLQMVDGTGRIYNGDELLYAIVRERMQRGPVAGVVGTLMTNYGLERQLQQIGVGFERANVGDRYVLEQMQARGWLYGGESSGHLLCLDCHTTGDGTIAALQVLTALRRADATLAEWVADLRMYPQKMINVPLAPGLDWKTHDGLARARGAVEAELAGRGRVLIRASGTEPKLRLMVEAEDEALAQASAQKLADSLGA”, the protein production entry is given as “failed”. Consider “MRKIFLACPYSHADAEVVEQRFRACNEVAATIVRAGHVVFSQVSMSHPINLCLAELDRAAIGRLWAPVDAFYMDHLEELIVLDLPGWRDSAGIRREMEFFEAGGQRVSLWSEVEHEFR”, for which the protein production result is “not failed”.

“MIRMTKVDIISGFLGAGKTTFIKQLINQAFAGEKLVLIENEFGEIGIDGGFLKNAGIEITEMNSGCICCTLVGDFSKALKKVLEEYQPDRVIIEPSGVGKLSDIMKAIEDVKKDADIAIDGRITVVDGKKAKLYLKNFGEFFKDQVEHASAIVISRTQAMSDDKIEECVHMLRDENKEAAIISTPWAQLGKEAIIHALEKGSELAGLLEETHGQECCHHEHHHHEHEACGHEHHHHHADEIFTSWGKETAHKYTKEELDFMLKALSETEAYGTVLRSKGIIQMSDGSWRQFDLVPQEYEVREGQPDYTGRLCVIGTDLKEEELMTLFHLKLEHHHHHH”: the protein production result was “failed”.

Turning to “VGFAPELYCGLENCYDVLEVNREEFDKQKLAKAYRALARKHHPDRVKNKEEKLLAEERFRVIATAYETLKDDEAKTNYDYYLDHPDQRFYNYYQYYRLRAAPKVDL”, the protein production entry is reported as “not failed”. “MVVYGKQKYIMKRCFYMNKKLKTEAVDHLFQAILTLKSTEECYSFFEDVCTVNELLSFSQRYEVAKMLREKRTYLEIADKTGASTATISRVNRSLNYGNDGYDMVFKRLEDQAAEDNEA”: the protein production result is listed as “failed”. Regarding “MDQNVPISKKLWNIVRFLLYMIRKGVSKNKLIADFNATLKRGKNLMFHQRRRVHAGSTASAALNATSATASSRQEYEFSCSNTPNYSFPFSNMAFMRKKSHNNLFTCGQTPQTLDDDVAAARAVLELLNGVGEKGNVTPADLTVALSPYFPGFGQTPLVRPLRVTDSPFPLTPENGDVANGHVDKAADDFIKKFYKNLNQQKKMIEFS”, the protein production entry is recorded as “failed”.

As for “PFKESQARGLLQDNMANGYNGEDFESGLLELSKEIFPTNKYLYQDGQYLDKKTINAYLDPKYTKKEIDKMSEKEKKSKNANENLGLNPSHNGETDEEKIAKNSPAYLSNILEQDFYGNSDSKGKNIKGMTIGLAMNSVYYYKKEKDGETFSKDLSDKEIEKQGKQMASEMLSRLRENSDLKDIPIHFAIYKQSSQDSITPGEFIVGTTVEEGKTKINSWDNINEKAALIPSSTAADYDETLNNNFKQFNDNLQSYFSNFTQAVGKVKFVNKKAKQLTVDLPIDYYGQAETIGITQYVTEQAEKYFDKLDEYEIRIKDGNTPRALISKTKDDKEPQVHIYHN”, the protein production result was “not failed”. Regarding “MPIPKSAKSDYTKEQKDLVGNICQCKDFYKILNVDKKASPDEIRIAFRKRIREVHPDKCKHPSATEASKVVNNAFSLLMDPAKRRQYDLQ”, the protein production result was “not failed”. With “MSTDSIVKASNWRLVEVGRVVLIKKGQSAGKLAAIVEIIDQKKVLIDGPKAGVPRQAINLGQVVLTPLTFALPRGARTATVSKKWAAAAVCEKWAASSWAKKIAQRERRAALTDFERFQVMVLRKQKRYTVKKALAKA”, the protein production result is “failed”. As for “MSPIILSITIIAYFMILFAISYIAGHKADNEGFFVGNRKSAWYIVAFAMIGSTISGVTFVSVPGMVQASGFSYLQMVLGFIVGQFIIAFILVPLFYRMNLVSIYEYLENRFGASSYKTGAWFFFISKMLGAAVRLFLVCLTLQLLIFEPFHIPFIINVILTVLIVWLYTFRGGVKSLIWTDVLKTFCLVVSVVLCIYYIASSLHLNFSGLVSTISDNDLSKMFFFDDVNDKRYFFKQFLAGVFTVIAMNGLDQDMMQRNLSCKNFRDSQKNMITSGISQFFVILLFLMLGVLLYTFTARQGIENPGKSDELFPMIATGNYFPGIVGILFIIGLIASAYSAAGSALTALTTSFTVDILNAHKKDEAALSKIRKHVHIGMAFVMGIVIFVFNLLNNTSVIDAIYTLASYTYGPILGLFAFGIFTKKQVYDPYIPLVAILSPALCYVLQRNSEAWFDGYQISYELLILNAAFTFLGLCLLIKRKSSVAPINNSLIKKH”, the entry is “failed”; as for “MRPGQELAGPGLRQPRTGVPRRRHRRLPRRHRPAIVSLPPSYGPSMPDAHPPPSPSKDRSFAARVQTGALVIIAFAVVLALLVQAQFILISLAVSVILFSLTSDAIALVARVRFGPVKIPNWLASSLALLLLAIVLLSLAAVIVSQVNTVLLTALSYSEQAPAAVAAIFSWLGKDAEEAVLSSLRAVEISGYLRTLAAQAGTLMQATVLVILFVGFLFAERVWFPVKLLNLFGNPDRARRVEEIVSSIMHRVNRYLLVKTLVSAITGLLVWGVAMAFGLDLAAPLGMLTFILNFIPSLGSIVATLLIVLVTFVQTVDVSTALSVLALVGVIQFICGNILDPMLMGRALQLSSFGIIISLAFWGAIWGIPGMFLSVPIMVGLMIVCAETEALRPIAVLLSREGLAAPMHPERPAAPPRAEPETETVASRRVGL”, “failed”. Take “MSNSKWWFLLVCFIPAITFASEGGEHSDPVTSVLLGVTTILFLAIIGRYLARLLNQPGVLGELLIGMIVGNLSYFFGSELVVILREGSAIYDVVKEMLAGISLNQAVTHVIHNSYYANQVIHALSGAEGTEYLKIAYVVDIFSRYGVIFLLFMVGLETSLSDLKKTGKESILVAVIGIVAPMILGFVVACFIIPNSNYKINLFIGATLSATSIGITASVLKEMNKLSTREARTILGAATLDDILGLIILAVVSSIVISGAVSIMVVMKIIILALLFFIGTLFMGPFVLRKAVDLFRFLEPWESKLFISFLFIMALAWLASFIQLAAIIGAFAAGVILHDDYFGEQKAHHKDHRSIHHLVSPLETILAPMFFTLIGIQVKLETFYDWNVIVLAGGLSVAAILGKLLSGLGANRRDDRLLIGIGMLPRGEVGLVFASIGRTIGVISDNLFTAIVLMIMITTFIAPPLLKMRYAKPKEDRNA”: the protein production entry is “failed”. In the case of “MYTITDIAPTDAEFIALIAALDAWQETLYPAESNHLLDLSQLPPQTVIALAIRSPQGEAVGCGAIVLSEEGFGEMKRVYIDPQHRGQQLGEKLLAALEAKARQRDCHTLRLETGIHQHAAIALYTRNGYQTRCAFAPYQPDPLSVFMEKP”, the protein production entry was “failed”. As for “MEITKIRGTLPSITYWNSTTPIKYTYNGTTYTGYMGNYWSDYNGTDSDGDGIGDTSYTVPNDLGTDNHPLMQPFENYNLEHHHHHH”, the protein production result is “failed”. As for “MLLTATLLGLIAALGILDGRLLGVSMIDRPLVMCALTGLVCGNLHEGILIGATLELIFLGNVAIGAAVPPDVVTGSVLATAFSIMSGRGPEAALTIAIPISMLAQTLGVLVRVVNARFGHMADRYAAQGNTRMVAVMHLGGPTLLYFLSGFLPVFFAILLGSAAVTWFLDAIPAFITNGLVVASKILPALGFALLISMMLSSKLMPYLGLGFLIAAYTKLDIIAIALFAVVLAFIISQFLNTSQQEG”, the entry is “failed”; as for “MDRHEYEHRIINRIVENHGRDTRQLLSILREVQHEFRQVSPEAQQKVAESLGVCITQVRAVVDFYSFLSTVPLGKFDIRISDSITDHMLGSREVAAGLCRKLGIQPGEPRQDGRVGLSFTSCTGLCDQGPAGLINGYAIPRLTEDRTDQIARLINDDIPLGEWPEEFFAIKENIRLADRLLGNPVRPGEALERTLALDRETMFGEIETSQLRGRGGAGFNTAWKWRFCYEGPETAAVCPPGQPAAGIERYVVCNADEGEPGTFKDRVLLQSCADQVFEGMTVCAYLVGAKQGFLYLRGEYLYLHDQLEAVLAARRRHGLLGKSILGREGFDFDIEIRLGAGAYICGEESALIESLEGNRGVPRNRPPYPVTHGYLGKPTVVNNVETFFAAAAIAVHGGEWFAEVGTEKSKGTKLLSICGDCARPGIYEYPFGVTIRQVLEDCGAADVLGVQIGGPSGTFLSDKECDRKLAYEDLATGGSFIVFDRTRDVIGIARNFTHFFAHESCGFCTPCRVGTALLKNLLDKIAEGHGATGDLAELSRLGRFVRSASHCGLGQTAANPILSTLERYPEIYQARLKTIDFEPGFDLDGALATARRLSGRDDANAHLSQS”, “failed”. In the case of “MKKTLKILAGFVAVVIIIALGIFTSRKLYQNHVDKINHIGKVMDSYKGVKVYYNGKKYAESHGKNYSKDGYYYGYKWQVEYIKRFYYEAKGHSMPNGFGNAKDFFDPKVGQGKLNKDRGLFQYKNGENEKPKADDILVFTDTKYGHVVIVTKVTDDTVEVIQQNMGNKTRDQFKLEYENGKYFVCGKRKPKGWLRKGLEHHHHHH” it was “not failed”; in that of “MFKSNYKGYGSGIISAMAWGLDTVLVGVILSMAPFINTESAIMLAPFVSTFLHDFFSTLWMFIYMIFTRQVGKLFKSLKTPSTKYVILASIFGGPMGMTGYLLSVNYIGPSYAATISSIYPAVGAVLAAIFLKEKISRKGYIGLTISILGIALLGFGNDGGKASLIGFLFAGLSVLGWGSESVICSYGMKDEDISPKQALQIRQFISALFSGVIILPLLKAYPLVFEVLKGNVTFVIIGTALMGTISYVCYYTAIHKLGPTRAMGLNITYVVWAMIFDKVLLGHNITIKMVICALMVMIGSFVVATQPAHEEELTNVTNTAV”, “failed”; in that of “MLSQTLLEMTEQMIEVAEKGADRYQEGKNSNHSYDFFETIKPAVEENDELAARWAEGALELIKVRRPKYVHKEQIEAVKDNFLELVLQSYVHHIHKKRFKDITESVLYTLHAVKDEIAREDSRLEHHHHHH”, “not failed”.
